Test results reported in patent US20040001835A1, “Prevention or treatment of cancer using integrin alphavbeta3 antagonists in combination with other agents” (MedImmune, Inc., priority 2002, published 2004).
“Also recorded” adds a separate entry of the source.

How the values were obtained:
[1] = target: T1, human β3 complexed to endogenous mouse αv (Homo sapiens, UniProt P05106); assay: Flow cytometric analysis of binding to human β3 transfected B16F10 cells; details: mouse melanoma B16F10, human β3 with endogenous mouse αv, FACS, FIG. 3
T1 construct: expressed in transfected cells; host or cells: B16F10 mouse melanoma
T1 sequence (P05106 27-788): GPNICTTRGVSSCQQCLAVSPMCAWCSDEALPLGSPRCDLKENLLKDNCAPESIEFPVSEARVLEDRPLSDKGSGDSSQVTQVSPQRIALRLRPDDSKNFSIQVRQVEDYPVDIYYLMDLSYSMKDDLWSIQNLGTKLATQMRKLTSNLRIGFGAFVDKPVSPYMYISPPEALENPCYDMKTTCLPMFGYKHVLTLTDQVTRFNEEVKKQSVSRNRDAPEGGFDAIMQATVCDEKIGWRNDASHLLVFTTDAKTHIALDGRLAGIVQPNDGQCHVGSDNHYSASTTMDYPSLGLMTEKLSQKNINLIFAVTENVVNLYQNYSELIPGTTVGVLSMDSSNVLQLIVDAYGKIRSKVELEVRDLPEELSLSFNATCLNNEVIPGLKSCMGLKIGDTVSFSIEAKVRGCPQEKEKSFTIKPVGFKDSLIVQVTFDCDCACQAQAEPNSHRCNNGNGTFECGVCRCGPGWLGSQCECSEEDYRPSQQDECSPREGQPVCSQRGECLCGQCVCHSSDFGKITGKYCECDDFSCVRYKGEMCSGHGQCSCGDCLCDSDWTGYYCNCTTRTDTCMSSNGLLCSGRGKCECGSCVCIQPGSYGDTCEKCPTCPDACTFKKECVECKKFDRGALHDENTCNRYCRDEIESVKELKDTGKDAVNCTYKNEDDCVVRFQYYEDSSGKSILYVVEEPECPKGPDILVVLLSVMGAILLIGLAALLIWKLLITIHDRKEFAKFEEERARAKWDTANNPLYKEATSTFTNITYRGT
T1 sequence (P43406 31-885 partner limits assumed): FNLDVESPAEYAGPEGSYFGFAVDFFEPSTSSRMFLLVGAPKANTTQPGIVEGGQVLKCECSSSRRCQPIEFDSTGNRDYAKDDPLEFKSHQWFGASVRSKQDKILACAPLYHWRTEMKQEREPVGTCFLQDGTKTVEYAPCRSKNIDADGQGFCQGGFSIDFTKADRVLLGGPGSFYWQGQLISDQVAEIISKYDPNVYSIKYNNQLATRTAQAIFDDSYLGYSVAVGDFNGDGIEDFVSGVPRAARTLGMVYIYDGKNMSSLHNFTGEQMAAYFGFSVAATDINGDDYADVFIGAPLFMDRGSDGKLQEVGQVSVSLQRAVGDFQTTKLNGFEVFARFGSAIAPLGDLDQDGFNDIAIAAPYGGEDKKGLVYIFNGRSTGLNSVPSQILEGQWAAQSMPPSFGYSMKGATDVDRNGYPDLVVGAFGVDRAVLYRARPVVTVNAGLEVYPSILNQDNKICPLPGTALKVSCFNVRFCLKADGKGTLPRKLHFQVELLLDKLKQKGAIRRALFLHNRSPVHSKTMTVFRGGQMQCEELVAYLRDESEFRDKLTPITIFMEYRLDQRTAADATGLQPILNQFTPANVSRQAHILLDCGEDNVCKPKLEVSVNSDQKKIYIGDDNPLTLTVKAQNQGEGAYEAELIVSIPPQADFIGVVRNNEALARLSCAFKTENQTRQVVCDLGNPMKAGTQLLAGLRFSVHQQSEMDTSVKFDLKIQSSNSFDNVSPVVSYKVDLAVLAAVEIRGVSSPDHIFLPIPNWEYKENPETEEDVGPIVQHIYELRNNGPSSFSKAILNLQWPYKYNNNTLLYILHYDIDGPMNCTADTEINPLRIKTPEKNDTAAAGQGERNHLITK
T1 sequence (P43406 887-1044 partner limits assumed): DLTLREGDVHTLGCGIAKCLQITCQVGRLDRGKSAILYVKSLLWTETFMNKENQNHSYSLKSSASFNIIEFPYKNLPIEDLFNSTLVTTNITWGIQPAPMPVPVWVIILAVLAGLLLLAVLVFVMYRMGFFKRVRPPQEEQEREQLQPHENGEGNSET
Experimental: FIG. 3. Flow cytometric analysis of binding of Vitaxin® to human β3 transfected B16F10 cells. In order to determine the binding specificity of Vitaxin® for αvβ3, the mouse melanoma line B16F10 was transfected with an expression vector encoding the human β3 gene. Cells were analyzed by FACS for expression of β3 expressed with the endogenous mouse αv.

[2] = target: T2, modified mouse Integrin αVβ3 with amino acids 164-202 of the human β chain (Mus musculus, UniProt O54890, A208T/I198L/K199E/N204D/N207T/Q196E/S226T); assay: Binding to modified mouse Integrin αVβ3; design: species or system mouse/human chimera
T2 sequence (O54890 26-787 Q196E/I198L/K199E/N204D/N207T/A208T/S226T): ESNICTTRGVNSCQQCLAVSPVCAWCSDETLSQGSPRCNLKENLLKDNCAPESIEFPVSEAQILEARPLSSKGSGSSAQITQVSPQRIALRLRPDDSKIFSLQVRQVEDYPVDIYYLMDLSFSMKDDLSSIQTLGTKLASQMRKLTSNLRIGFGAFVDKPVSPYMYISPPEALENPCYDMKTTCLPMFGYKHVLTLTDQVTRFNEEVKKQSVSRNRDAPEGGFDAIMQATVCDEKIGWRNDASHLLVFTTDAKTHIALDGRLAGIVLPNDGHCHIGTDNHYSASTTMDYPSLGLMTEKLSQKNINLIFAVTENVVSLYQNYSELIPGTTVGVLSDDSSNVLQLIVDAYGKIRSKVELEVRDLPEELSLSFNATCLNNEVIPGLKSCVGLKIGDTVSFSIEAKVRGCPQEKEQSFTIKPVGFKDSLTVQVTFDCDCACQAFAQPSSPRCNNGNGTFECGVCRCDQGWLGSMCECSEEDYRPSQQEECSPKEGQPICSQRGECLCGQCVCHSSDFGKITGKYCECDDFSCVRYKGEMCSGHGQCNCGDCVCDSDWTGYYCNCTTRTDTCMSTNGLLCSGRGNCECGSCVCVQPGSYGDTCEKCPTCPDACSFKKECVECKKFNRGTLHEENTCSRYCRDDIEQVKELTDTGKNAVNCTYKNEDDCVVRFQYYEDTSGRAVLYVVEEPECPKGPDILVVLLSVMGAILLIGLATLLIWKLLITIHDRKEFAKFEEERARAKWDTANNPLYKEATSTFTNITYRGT
T2 sequence (P43406 31-885 partner): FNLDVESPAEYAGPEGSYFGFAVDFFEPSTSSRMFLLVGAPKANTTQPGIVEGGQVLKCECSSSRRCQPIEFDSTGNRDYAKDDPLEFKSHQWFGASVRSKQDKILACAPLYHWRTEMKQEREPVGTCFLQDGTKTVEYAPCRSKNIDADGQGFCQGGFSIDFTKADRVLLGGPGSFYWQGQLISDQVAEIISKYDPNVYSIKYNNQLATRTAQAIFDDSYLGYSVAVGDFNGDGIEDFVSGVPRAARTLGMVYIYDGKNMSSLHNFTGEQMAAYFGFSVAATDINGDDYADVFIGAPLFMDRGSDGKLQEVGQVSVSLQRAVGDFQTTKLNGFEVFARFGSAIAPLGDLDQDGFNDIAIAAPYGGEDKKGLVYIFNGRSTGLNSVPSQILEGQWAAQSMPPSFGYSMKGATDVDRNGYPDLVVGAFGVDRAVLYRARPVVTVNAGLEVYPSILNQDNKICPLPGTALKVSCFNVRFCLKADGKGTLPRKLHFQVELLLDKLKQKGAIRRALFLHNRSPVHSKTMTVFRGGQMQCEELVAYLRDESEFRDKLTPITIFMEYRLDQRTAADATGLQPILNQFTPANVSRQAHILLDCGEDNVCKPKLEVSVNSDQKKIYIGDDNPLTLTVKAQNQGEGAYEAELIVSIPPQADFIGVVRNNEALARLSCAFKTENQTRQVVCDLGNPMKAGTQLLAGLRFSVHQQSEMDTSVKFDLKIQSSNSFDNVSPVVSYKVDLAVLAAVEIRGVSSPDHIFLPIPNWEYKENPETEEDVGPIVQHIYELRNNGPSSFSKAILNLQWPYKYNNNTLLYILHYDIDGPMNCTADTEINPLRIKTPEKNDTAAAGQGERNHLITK
T2 sequence (P43406 887-1044 partner): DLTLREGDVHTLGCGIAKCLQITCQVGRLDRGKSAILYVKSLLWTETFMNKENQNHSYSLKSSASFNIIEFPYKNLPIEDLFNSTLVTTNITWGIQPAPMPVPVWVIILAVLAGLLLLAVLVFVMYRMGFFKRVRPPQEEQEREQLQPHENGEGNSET

B1: Vitaxin®: humanized blocking monoclonal antibody that binds Integrin αVβ3 (MEDI-522, MedImmune); humanized and optimized version of LM609 (antibody, chains of the INN, looked up, V domains shown)
VH: QVQLVESGGGVVQPGRSLRLSCAASGFTFSSYDMSWVRQAPGKGLEWVAKVSSGGGSTYYLDTVQGRFTISRDNSKNTLYLQMNSLRAEDTAVYYCARHLHGSFASWGQGTTVTVSS
VL: EIVLTQSPATLSLSPGERATLSCQASQSISNFLHWYQQRPGQAPRLLIRYRSQSISGIPARFSGSGSGTDFTLTISSLEPEDFAVYYCQQSGSWPLTFGGGTKVEIK
binding to human β3 transfected B16F10 cells [1]: bound; also recorded: recognized the transfected cells | binding to modified mouse Integrin αVβ3 (human β chain amino acids 164-202) [2]: do bind
